Experimental data: publication PMC9985226, “A fully human connective tissue growth factor blocking monoclonal antibody ameliorates experimental rheumatoid arthritis through inhibiting angiogenesis” (BMC Biotechnology, 2023)
Positions count from the first letter of the chain named.

B1: anti-CTGF scFv B2 (scFv, V domains shown)
VH: QVQLVQSGAEVKKPGESLKISCKGSGYKFTSYWIAWVRQMPGKGLEWMGIIYPGGSDTRYSPSFQGQVTISDDRSSSTTYLQWSSLKASDTAIYYCARSGELMDVWGQGTTVTVSS
VL: SYVLTQPPSVSVSPGQTVSITCSGDKLGNKYASWYQQRPGQSPILVIYQDTKRPSGIPERFSGSNSGNTATLTISGTQAMDEADYYCQAWDSNTAFFGTGTKVTVL
notes: VH of scFv B2; the classical (Gly4Ser)3 linker between VH and VL; VL of scFv B2; Order VH-linker-VL as in the library construction; Selected from a fully human phage library made from PBMCs of RA patients; also called parental scFv B2; source: E. coli (pET28a, IPTG induced), purified (Ni Sepharose)
B2: anti-CTGF IgG mut-B2 (antibody, V domains shown)
VH: B1 VH with S99L, E101G, L102A
VL: B1 VL with V103L
notes: heavy chain: VH of m3 with human IgG1 constant region; light chain: VL of m3 with antibody constant region; Human IgG1 format; also called full-length antibody IgG mut-B2; source: ExpiCHO, transiently expressed, purified from supernatant (Protein G Sepharose); copies: 2 + 2
B3: mut-scFv B2 (scFv, V domains shown)
VH: B1 VH with S99L, E101G, L102A
VL: B1 VL
notes: VH of mut-scFv B2; as the VH of m2 with three changes in VH-CDR3; the classical (Gly4Ser)3 linker between VH and VL; VL as the VL of m2; source: E. coli (pET28a, IPTG induced), purified (Ni Sepharose)

Tests used:
[1] = biological target: T1, recombinant human connective tissue growth factor (CTGF) (Homo sapiens, UniProt P29279); experiment: SPR; Biacore T200; CTGF amine-coupled on a CM5 chip; scFvs or IgG in running buffer PBS pH 7.4 flowed for 3 min at 10 µl/min, 5 min dissociation, regeneration with 1 M NaCl; conditions: both partners purified
T1 construct: connective tissue growth factor (CTGF, CCN2), human, recombinant; The methods of the SPR say only that 'CTGF' was amine-coupled; also called hCTGF; CCN2
T1 sequence (P29279 27-349): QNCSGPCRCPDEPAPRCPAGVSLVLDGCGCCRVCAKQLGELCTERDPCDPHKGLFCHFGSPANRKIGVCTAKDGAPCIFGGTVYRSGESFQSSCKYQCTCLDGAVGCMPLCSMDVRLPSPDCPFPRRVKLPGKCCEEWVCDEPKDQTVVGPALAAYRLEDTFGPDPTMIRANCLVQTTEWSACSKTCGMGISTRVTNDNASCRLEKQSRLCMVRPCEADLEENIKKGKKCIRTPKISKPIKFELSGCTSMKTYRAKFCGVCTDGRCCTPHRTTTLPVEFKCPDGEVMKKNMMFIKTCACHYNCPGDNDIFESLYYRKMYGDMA

[2] = biological target: T1, recombinant human connective tissue …; experiment: cell-based or functional assay

Row | Binder | Kd [1] | koff [1] | kon [1] | EC50 of inhibition of CTGF-induced HUVEC proliferation, CCK-8 assay, scFv 1-500 nM [2]
1 | B1 | 0.252 µM | 0.00574 s⁻¹ | 22800 M⁻¹ s⁻¹ | 0.0374 µM
2 | B2 | 0.000782 µM | 0.00365 s⁻¹ | 4.67e+06 M⁻¹ s⁻¹ | 
3 | B3 | 0.00196 µM | 0.00222 s⁻¹ | 1.13e+06 M⁻¹ s⁻¹ | 0.0275 µM
